The labels stand for the following.
B1: human Ev1 protein (NCBI accession No. AAF21709) (other, UniProt Q9UI08-2 1-418, looked up)
chain: MATSEQSICQARASVMVYDDTSKKWVPIKPGQQGFSRINIYHNTASNTFRVVGVKLQDQQVVINYSIVKGLKYNQATPTFHQWRDARQVYGLNFASKEEATTFSNAMLFALNIMNSQEGGPSSQRQVQNGPSPDEMDIQRRQVMEQHQQQRQESLERRTSATGPILPPGHPSSAASAPVSCSGPPPPPPPPVPPPPTGATPPPPPPLPAGGAQGSSHDESSMSGLAAAIAGAKLRRVQRPEDASGGSSPSGTSKSDANRASSGGGGGGLMEEMNKLLAKRRKAASQSDKPAEKKEDESQMEDPSTSPSPGTRAASQPPNSSEAGRKPWERSNSVEKPVSSILSRTPSVAKSPEAKSPLQSQPHSRMKPAGSVNDMALDAFDLDRMKQEILEEVVRELHKVKEEIIDAIRQELSGISTT
notes: range 1-418; His tag removed by thrombin; By gel filtration it eluted at approximately 600 kDa (approximately 13-mer multimer); In the pull-down it was either coupled covalently to Affi-Gel 10 beads or free in solution; also called entire-length Ev1 protein; His-Ev1 (before the tag was removed)

Data set [1] deals with the molecule itself. Put plainly: inferred from the pull-down on Rad51B-bound beads; gel filtration (approximately 600 kDa). A general note: SEC sorts molecules by how far they enter the pores of the column.
Data set [2] addresses B1. In words: pull-down, Ev1 coupled to Affi-Gel 10 beads, SDS-PAGE, Coomassie stain. Here is the method: Thereafter, the obtained mixture was incubated at 4° C. overnight. The Affi-Gel 10-Ev1 beads were washed 3 times with 500 μl of washing buffer 1 (20 mM potassium phosphate (pH 8.5), 30% glycerol, 700 mM NaCl, 5 mM 2-mercaptoethanol, and 0.05% Triton X-100). The Affi-Gel 10-Rad51B beads were washed 3 times with washing buffer 2 (20 mM HEPES-NaOH (pH 7.3), 30% glycerol, 90 mM NaCl, 2 mM 2-mercaptoethanol, 0.1% Triton X-100, 2 mM ammonium sulfate, and 0.1 mM EDTA). Thereafter, a 50% suspension of such Affi-Gel 10-protein was prepared, and it was then preserved at 4° C.
In order to carry out a binding assay, an Affi-Gel 10-protein suspension (30 μl) was incubated with 10 μg of an Ev1 or Rad51B protein at room temperature for 150 minutes. Affi-Gel 10-Ev1 beads were washed 4 times with 100 μl of buffer 1 (20 mM potassium phosphate (pH 8.5), 30% glycerol, 700 mM NaCl, 5 mM 2-mercaptoethanol, and 0.3% Triton X-100). Affi-Gel 10-Rad51B beads were washed 4 times with 100 μl of buffer 2 (20 mM HEPES-NaOH (pH 7.3), 30% glycerol, 90 mM NaCl, 2 mM 2-mercaptoethanol, 2 mM ammonium sulfate, 0.1 mM EDTA, and 0.35% Triton X-100). An SDS-PAGE sample treatment buffer (2×) was directly mixed with the washed beads, and the obtained mixture was then subjected to a heat treatment at 100° C. for 2 minutes. […]

As to B1, the binding result in data set [1] is on record as “binds”.

B2: Rad51B protein (other, UniProt O15315-1 1-350, looked up)
chain: MGSKKLKRVGLSQELCDRLSRHQILTCQDFLCLSPLELMKVTGLSYRGVHELLCMVSRACAPKMQTAYGIKAQRSADFSPAFLSTTLSALDEALHGGVACGSLTEITGPPGCGKTQFCIMMSILATLPTNMGGLEGAVVYIDTESAFSAERLVEIAESRFPRYFNTEEKLLLTSSKVHLYRELTCDEVLQRIESLEEEIISKGIKLVILDSVASVVRKEFDAQLQGNLKERNKFLAREASSLKYLAEEFSIPVILTNQITTHLSGALASQADLVSPADDLSLSEGTSGSSCVIAALGNTWSHSVNTRLILQYLDSERRQILIAKSPLAPFTSFVYTIKEEGLVLQAYGNS
notes: In the pull-down it was either coupled to Affi-Gel 10 beads or free in solution
Consider B2, for which the stoichiometric ratio in data set [2] was 1 Rad51B:Ev1 (1:1).

Values taken from patent publication US20100068766A1 (WASEDA UNIVERSITY, published 2010).
